Assay results published in patent US20240165140A1, “MEDICATION FOR INHIBITING DNA-PKCS” (TSINGHUA UNIVERSITY, priority 2017, published 2024).

What was measured:
[1] = target: T1, DNA-PKcs (Homo sapiens, UniProt P78527); test: Endostatin-coupled CNBr-activated Sepharose 4B pull-down and co-immunoprecipitation; type: binding
T1 construct: incubated with A549 cell lysate; endogenous in cells; host or cells: A549 and H1299 cells (lysates)
Protocol: CNBr-activated Sepharose 4B used in this example was purchased from Sigma. First, according to the instructions, endostatin and bovine serum albumin (BSA) were coupled to CNBr-activated Sepharose 4B, respectively, and incubated with A549 cell lysate. The pull down proteins were subjected to SDS-PAGE electrophoresis and stained with Coomassie blue. […] To further verify the interaction between the two, H1299 and A549 cells were incubated with Endostatin for 2 hours for endocytosis. The cell lysate was mixed with the antibody of DNA-PKcs, and then co-incubated with protein A/G beads.

[2] = system: DNA-PKcs signaling pathway; test: Immunoblotting of DNA-PKcs signaling pathway activation induced by chemotherapeutic agent; type: cell-based; conditions: H1299 and A549 cells; single agent 1 h (Etoposide 10 μM, Endostatin 10 μg/ml, NU7026 10 μM); compared with control group
Source text: Tumor cells (including non-small cell lung cancer H1299 and A549 cells) were divided into six treatment groups.
Tumor cells (including H1299 and A549 cells) were divided into six treatment groups.

[3] = system: H1299 and A549 cells; test: Annexin V-FITC/PI apoptosis by flow cytometry with DNA-PKcs siRNA knockdown; type: cell-based; conditions: Endostatin 10 μg/ml added 1 h before Etoposide (10 μM for H1299, 1 μM for A549, 16 h)
Protocol: In this example, tumor cells (including H1299 and A549 cells) were divided into eight treatment groups. In the first four groups, cells were transfected with control siRNA, and in the last four groups, cells were transfected with siRNA that specifically knocked down DNA-PKcs. The siRNA sequence of DNA-PKcs is: forward 5′-[…]-3′ (SEQ ID NO: 5), reverse 5′-[…]-3′ (SEQ ID NO: 6). The siRNA transfection method was performed according to the instructions of the transfection reagent Lipofectamine 2000. Then, in the eight groups, the cells were treated with drugs. […] Cells were collected and operations were performed according to the instructions of Annexin V-FITC/PI Apoptosis Detection Kit. Apoptosis was detected by flow cytometry. A549 cells were P53 wild-type cells, and H1299 cells were P53-deficient cells.

[4] = system: P53-deficient tumor cells (H1299-NC, A549-shP53); test: PI staining apoptosis by flow cytometry, P53-deficient tumor cells; type: cell-based; conditions: Endostatin 10 μg/ml added 1 h before Etoposide 1 μM, 16 h
Protocol: (§1) The apoptotic cells and adherent cells floating in the culture medium were collected, and the cells were suspended in 500 μl PBS containing 0.05 mg/ml propidium iodide (PI), stained for 15 min at room temperature in dark, and detected by flow cytometry (BD FACS Calibur). PI-positive cells represent apoptotic cells.

[5] = system: tumor cells with normal P53 function (H1299-P53, A549-NC); test: PI staining apoptosis by flow cytometry, tumor cells with normal P53 function; type: cell-based; conditions: Endostatin 10 μg/ml added 1 h before Etoposide 1 μM, 16 h
Protocol: as §1

[6] = system: A375 cells; test: CCK8 cell activity, melanoma A375; type: cell-based; conditions: A375 (P53 wild type); operation process as in Example 5
Protocol: First, a lentivirus kit (purchased from Shanghai Genepharma) was used to construct a P53 stably overexpressing H1299 cell line (H1299-P53) and a P53 stably knockdown A549 cell line […]. The P53 sequence targeted by the shRNA used to knock down P53 in A549 cells was 5′-[…]-3′ (SEQ ID NO: 4). Virus transfection and the construction of stable cell lines were performed according to the kit instructions. […] After treatment for 12 hours, the drug-containing medium was replaced with a normal medium and the cells were further cultured for 72 hours. Cell activity was measured according to the instructions of the CCK8 kit (Dojindo, Tokyo, Japan).
This example used two cell lines of another tumor type (melanoma), the MDA-MB-435S (P53 mutant) and A375 (P53 wild type) cell lines, to verify the regulatory function of Endostatin on the chemotherapeutic sensitivity of other types of tumor cells with different P53 status. Operation process was the same as in Example 5.

[7] = system: A549-shP53 tumor; test: Subcutaneous tumor growth in nude mice, A549-shP53; type: in vivo; conditions: A549-shP53, Day 27; compared with control group; Endostatin 20 mg/kg i.p. once a day, Etoposide 2 mg/kg i.p. once every two days
Protocol: (§2) Tumor-bearing nude mice were randomly divided into four groups with 6 to 8 animals for each group, and different drug treatments were performed. […] Tumor volume was measured every other day. 2 to 4 weeks after administration, the mice were sacrificed and the tumor tissue was removed for further use.

[8] = system: A549-NC tumor; test: Subcutaneous tumor growth in nude mice, A549-NC; type: in vivo
Protocol: as §2

[9] = system: PCNA and DNA-PKcs protein in H1299-NC and A549-shP53 tumor tissues; test: Immunofluorescence of PCNA and DNA-PKcs in tumor tissue, P53-deficient mouse tumor model; type: in vivo, nude mice; conditions: H1299-NC and A549-shP53 tumors of Example 12; quantitative immunofluorescence
Protocol: as §2
The tumor tissue removed in Example 12 was fixed and embedded, and then sectioned. PCNA (a marker molecule indicating the vigorous proliferation status of tumor cells) and DNA-PKcs protein in tumor tissues were stained by immunofluorescence technique, and were observed and imaged with a laser confocal microscope (Nikon A1). The experimental results are shown in FIG. 14A-14D, in which blue represents the nucleus of DAPI-stained cells, green represents the DNA-PKcs protein, and red represents the PCNA protein. Taking the H1299-NC tumor tissue shown in FIG. 14A as an example, the first column on the left represents DNA-PKcs single staining, and the green area represents the DNA-PKcs protein expression level. The second column on the left represents the results of DNA-PKcs (green) merged with nucleus (blue), and the overlapping part is shown in cyan. The third column on the left represents PCNA single staining, and the red area represents the PCNA protein expression level, indicating the strength of tumor cell proliferation. […]

[10] = system: DNA-PKcs, PARP, γH2AX and Caspase-3 signaling pathways; test: Immunoblotting of DNA damage and apoptotic pathway, tumor cells with normal P53 function; conditions: H1299-P53, A549-NC; Endostatin 10 μg/ml, Etoposide 10 μM 16 h, z-DEVD-fmk 10 μM; Endostatin and z-DEVD-fmk added 1 h before Etoposide
Source text: In this example, tumor cells (H1299-NC, H1299-P53, A549-NC, A549-shP53) were divided into six treatment groups.

T1 sequence (P78527 whole entry): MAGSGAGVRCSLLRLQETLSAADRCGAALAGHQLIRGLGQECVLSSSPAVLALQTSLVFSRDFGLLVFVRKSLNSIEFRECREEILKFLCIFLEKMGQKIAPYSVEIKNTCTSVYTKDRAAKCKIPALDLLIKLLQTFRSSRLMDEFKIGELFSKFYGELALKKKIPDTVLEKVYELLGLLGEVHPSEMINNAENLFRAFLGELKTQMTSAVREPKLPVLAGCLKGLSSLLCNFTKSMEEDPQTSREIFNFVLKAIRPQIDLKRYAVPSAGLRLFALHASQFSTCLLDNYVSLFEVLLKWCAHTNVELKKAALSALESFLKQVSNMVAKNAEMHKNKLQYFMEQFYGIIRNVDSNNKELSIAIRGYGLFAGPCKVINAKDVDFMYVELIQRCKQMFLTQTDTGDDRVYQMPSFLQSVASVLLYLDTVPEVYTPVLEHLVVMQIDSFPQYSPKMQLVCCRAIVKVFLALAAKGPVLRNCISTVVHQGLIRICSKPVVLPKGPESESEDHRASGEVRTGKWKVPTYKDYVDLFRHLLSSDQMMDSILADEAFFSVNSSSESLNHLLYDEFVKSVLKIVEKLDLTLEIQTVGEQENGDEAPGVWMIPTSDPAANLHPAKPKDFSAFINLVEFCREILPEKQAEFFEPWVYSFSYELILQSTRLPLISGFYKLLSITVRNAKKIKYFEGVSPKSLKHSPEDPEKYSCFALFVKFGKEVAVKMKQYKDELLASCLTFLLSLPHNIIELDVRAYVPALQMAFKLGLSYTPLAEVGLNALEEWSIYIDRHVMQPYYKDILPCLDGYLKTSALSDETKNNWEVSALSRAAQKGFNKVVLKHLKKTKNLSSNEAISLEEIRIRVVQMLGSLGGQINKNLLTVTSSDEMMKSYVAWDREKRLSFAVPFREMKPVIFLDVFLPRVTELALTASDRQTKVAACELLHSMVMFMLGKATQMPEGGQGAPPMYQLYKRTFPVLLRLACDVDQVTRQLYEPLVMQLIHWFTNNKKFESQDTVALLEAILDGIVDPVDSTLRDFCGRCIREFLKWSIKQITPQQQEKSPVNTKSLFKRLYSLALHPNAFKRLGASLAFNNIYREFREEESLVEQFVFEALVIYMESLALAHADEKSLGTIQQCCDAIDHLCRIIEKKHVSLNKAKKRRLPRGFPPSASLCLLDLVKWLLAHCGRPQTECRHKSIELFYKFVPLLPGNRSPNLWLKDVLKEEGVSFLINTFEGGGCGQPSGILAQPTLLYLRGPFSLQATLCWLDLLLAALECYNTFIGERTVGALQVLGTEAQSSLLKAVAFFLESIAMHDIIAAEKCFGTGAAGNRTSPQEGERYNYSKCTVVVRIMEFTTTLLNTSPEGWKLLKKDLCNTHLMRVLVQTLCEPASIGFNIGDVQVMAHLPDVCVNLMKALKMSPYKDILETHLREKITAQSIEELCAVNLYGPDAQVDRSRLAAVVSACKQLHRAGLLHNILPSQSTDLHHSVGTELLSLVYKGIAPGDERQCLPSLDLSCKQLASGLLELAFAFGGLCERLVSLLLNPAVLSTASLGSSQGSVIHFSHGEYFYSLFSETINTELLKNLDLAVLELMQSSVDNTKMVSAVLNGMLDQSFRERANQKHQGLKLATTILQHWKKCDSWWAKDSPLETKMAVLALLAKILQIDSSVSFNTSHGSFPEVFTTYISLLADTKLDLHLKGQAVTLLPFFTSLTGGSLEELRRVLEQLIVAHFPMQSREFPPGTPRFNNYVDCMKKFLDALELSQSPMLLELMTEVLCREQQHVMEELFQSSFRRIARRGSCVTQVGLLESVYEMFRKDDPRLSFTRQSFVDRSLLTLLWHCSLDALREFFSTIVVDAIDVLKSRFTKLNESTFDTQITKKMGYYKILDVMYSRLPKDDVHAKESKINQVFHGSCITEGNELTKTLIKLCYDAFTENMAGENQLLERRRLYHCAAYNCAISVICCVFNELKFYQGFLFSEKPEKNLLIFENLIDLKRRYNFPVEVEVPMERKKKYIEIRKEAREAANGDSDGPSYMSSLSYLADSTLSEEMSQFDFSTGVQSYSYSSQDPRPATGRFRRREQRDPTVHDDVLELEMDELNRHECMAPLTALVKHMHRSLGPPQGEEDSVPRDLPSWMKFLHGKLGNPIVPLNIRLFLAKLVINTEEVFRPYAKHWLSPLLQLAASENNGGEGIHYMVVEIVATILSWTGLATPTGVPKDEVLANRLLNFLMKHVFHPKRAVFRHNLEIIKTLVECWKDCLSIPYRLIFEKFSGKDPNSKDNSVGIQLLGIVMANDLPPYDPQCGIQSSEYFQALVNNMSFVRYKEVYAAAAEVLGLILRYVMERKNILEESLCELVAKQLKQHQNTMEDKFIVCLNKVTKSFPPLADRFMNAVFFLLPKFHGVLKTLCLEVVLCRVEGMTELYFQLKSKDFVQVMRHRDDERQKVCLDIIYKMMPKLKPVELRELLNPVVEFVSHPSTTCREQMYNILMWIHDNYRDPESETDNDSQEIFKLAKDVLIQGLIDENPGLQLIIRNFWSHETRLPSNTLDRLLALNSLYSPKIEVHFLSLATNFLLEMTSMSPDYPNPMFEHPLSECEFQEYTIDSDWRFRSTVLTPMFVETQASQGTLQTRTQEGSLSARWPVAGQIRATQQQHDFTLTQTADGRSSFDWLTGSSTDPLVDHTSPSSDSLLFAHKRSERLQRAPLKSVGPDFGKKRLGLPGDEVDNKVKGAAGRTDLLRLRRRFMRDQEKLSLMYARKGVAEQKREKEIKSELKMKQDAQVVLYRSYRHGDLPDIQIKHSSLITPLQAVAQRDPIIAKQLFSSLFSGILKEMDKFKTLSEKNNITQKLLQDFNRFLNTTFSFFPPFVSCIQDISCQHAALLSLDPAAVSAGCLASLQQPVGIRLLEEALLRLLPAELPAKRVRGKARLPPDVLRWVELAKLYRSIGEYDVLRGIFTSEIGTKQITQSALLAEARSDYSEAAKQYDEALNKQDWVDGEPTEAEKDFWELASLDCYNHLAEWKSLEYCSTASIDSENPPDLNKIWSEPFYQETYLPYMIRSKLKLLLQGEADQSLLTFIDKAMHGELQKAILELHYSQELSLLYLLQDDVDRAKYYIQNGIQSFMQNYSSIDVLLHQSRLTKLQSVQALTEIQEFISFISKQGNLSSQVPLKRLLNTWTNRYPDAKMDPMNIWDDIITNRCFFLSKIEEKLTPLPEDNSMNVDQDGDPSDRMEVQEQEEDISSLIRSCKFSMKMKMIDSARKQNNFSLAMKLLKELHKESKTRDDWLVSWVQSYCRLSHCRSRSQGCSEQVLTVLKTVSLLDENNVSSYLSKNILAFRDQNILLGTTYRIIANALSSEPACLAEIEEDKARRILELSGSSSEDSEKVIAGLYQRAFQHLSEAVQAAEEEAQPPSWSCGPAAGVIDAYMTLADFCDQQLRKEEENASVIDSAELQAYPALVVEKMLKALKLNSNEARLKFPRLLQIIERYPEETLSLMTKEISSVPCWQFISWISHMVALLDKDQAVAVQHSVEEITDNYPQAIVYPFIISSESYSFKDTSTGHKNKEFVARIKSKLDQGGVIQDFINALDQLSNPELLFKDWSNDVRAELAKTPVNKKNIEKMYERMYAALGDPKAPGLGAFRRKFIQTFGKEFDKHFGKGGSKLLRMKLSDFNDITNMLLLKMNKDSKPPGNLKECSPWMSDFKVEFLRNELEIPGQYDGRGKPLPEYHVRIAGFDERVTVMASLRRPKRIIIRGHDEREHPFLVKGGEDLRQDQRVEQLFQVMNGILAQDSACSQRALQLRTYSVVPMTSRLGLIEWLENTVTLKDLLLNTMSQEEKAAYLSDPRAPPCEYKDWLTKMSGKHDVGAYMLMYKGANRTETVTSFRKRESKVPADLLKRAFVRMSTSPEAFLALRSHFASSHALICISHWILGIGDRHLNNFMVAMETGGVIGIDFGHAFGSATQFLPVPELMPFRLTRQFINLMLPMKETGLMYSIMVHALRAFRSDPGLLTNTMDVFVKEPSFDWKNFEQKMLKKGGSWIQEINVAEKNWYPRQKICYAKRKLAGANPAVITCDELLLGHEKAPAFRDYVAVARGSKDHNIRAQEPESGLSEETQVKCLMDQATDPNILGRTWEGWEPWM

B1: Endostatin: recombinant natural human endostatin expressed by E. coli, from Protgen, SEQ ID NO: 2 (protein)
chain: MHSHRDFQPVLHLVALNSPLSGGMRGIRGADFQCFQQARAVGLAGTFRAFLSSRLQDLYSIVRRADRAAVPIVNLKDELLFPSWEALFSGSEGPLKPGARIFSFDGKDVLRHPTWPQKSVWHGSDPNGRRLTESYCETWRTEAPSATGQASSLLGGRLLGQSAASCHHAYIVLCIENSFMTASK
modifications: The amino acid sequence of natural human endostatin
Q: How did the “Endostatin-binding protein identified by pull-down, SDS-PAGE and mass spectrometric analysis” value ([1]; A549 cell lysate, BSA-coupled Sepharose as control) turn out when B1 was run?
A: DNA-PKcs was identified as a protein interacted with Endostatin

Q: What about the “DNA-PKcs precipitated by Endostatin-coupled CNBr-activated Sepharose 4B (immunoblotting)” value ([1]; H1299 and A549 cell lysates) of the same molecule?
A: can be precipitated by CNBr-activated Sepharose 4B coupled with Endostatin

Q: What about the “Co-immunoprecipitation with antibody of DNA-PKcs” value ([1]; H1299 and A549 cells incubated with Endostatin for 2 hours) of the same molecule?
A: Endostatin could be co-precipitated by DNA-PKcs

Q: And the “Level of the DNA-PKcs signaling pathway (p-DNA-PKcs (S2056), p-AKT (S473), p-P53 (S15))” value [2]?
A: did not affect the level of the DNA-PKcs signaling pathway

Q: What about the “Role of Endostatin in promoting apoptosis induced by Etoposide after knocking down DNA-PKcs” value ([3]; DNA-PKcs siRNA) of the same molecule?
A: weakened

Q: What about the Etoposide-induced apoptosis ([3]; control siRNA) of the same molecule?
A: would further promote Etoposide-induced apoptosis

Q: What about the “Effect on ability of Etoposide to promote apoptosis (PI-positive cells)” value [4] of the same molecule?
A: could enhance the ability of Etoposide to promote the apoptosis of tumor cells

Q: What about the “Effect on the pro-apoptotic effect of Etoposide (PI-positive cells)” value [5] of the same molecule?
A: did not significantly enhance the pro-apoptotic effect of Etoposide

Q: And the “Effect on the inhibitory effect of Etoposide on cell activity” value [6]?
A: did not significantly enhance the inhibitory effect of Etoposide

Q: And the tumor suppression rate [7]?
A: 37.1%

Q: What about the tumor suppression rate ([8]; Day 27, compared with control group, Endostatin 20 mg/kg i.p. once a day, Etoposide 2 mg/kg i.p. once every two days) of the same molecule?
A: 40.9%

Q: What about the “Effect on the inhibitory effect of Etoposide on tumor growth” value ([8]; Endostatin 20 mg/kg i.p. once a day and Etoposide 2 mg/kg i.p. once every two days) of the same molecule?
A: could not enhance the inhibitory effect of Etoposide on tumor growth

Q: And the “Tumor cell proliferation (PCNA) and protein level of DNA-PKcs in tumor tissue” value [9]?
A: can attenuate tumor cell proliferation to a certain extent and reduce the protein level of DNA-PKcs

Q: And the “DNA-PKcs, PARP, γH2AX and Caspase-3 signaling pathway levels” value [10]?
A: did not affect the above-mentioned signaling pathway levels
